Experimental data published in publication PMC7935953, “Insights on autophagosome–lysosome tethering from structural and biochemical characterization of human autophagy factor EPG5” (Communications Biology, 2021).
Where no end group is shown, it is not given here.

How the values were obtained:
LC3B = target: T1, LC3B (Homo sapiens, UniProt Q9GZQ8); test: ITC of hEPG5 LIR peptides titrated into His-LC3B; type: binding; details: 0.6 mM peptide into 0.06 mM His-LC3B, 20 steps, 25 °C, 50 mM Tris pH 7.0, 25 mM NaCl, one-site model, mean of triplicates
T1 construct: made in house; host or cells: E. coli (T7 Express)
Experimental: (§1) For ITC studies, N-terminally His-tagged LC3 and GABARAP proteins were expressed in E. coli (T7 Express) cells. The cells were induced with 1 mM IPTG for 4 h at 25 °C. The cell pellets were resuspended, sonicated, and centrifuged, as described above with buffer G (50 mM Tris pH 7.0, 150 mM NaCl, and 2 mM PMSF). The supernatant was incubated with HisPur^TMNi-NTA resin (Thermo Scientific) pre-equilibrated with buffer G at 4 °C for 1 h. The resin was washed five times with buffer H (50 mM Tris pH 7.0, 150 mM NaCl) and subsequently ten times with buffer H containing 30 mM imidazole. The bound proteins were eluted with buffer H containing 100 mM imidazole once, then 300 mM imidazole for four times, and 500 mM imidazole once. […]
(§2) ITC experiments of hEPG5-LIR1 peptide titrating into His-LC3/GABARAP proteins were performed using ITC200 (GE Healthcare now Malvern Panalytical), while experiments of hEPG5-LIR2 peptide titrating into His-LC3/GABARAP proteins were performed using MicroCal PEAQ-ITC (Malvern Panalytical). […] The ITC data were analyzed with one-site binding model using Origin 7.0 (OriginLab). […]
(§3) All experiments were performed in triplicates. […] Intensity of His-FLAG-hEPG5, GST (control), and GST-LC3/GABARAP subfamily proteins in pull-down assays was quantified using Bio-Rad Image Lab Software v6.0. […]

LC3C = target: T2, LC3C (Homo sapiens, UniProt Q9BXW4); test: ITC of hEPG5 LIR peptides titrated into His-LC3C; type: binding; details: 0.6 mM peptide into 0.06 mM His-LC3C, 20 steps, 25 °C, 50 mM Tris pH 7.0, 25 mM NaCl, one-site model, triplicates
T2 construct: made in house; host or cells: E. coli (T7 Express)
Experimental: as §1, §2, §3

GABARAP = target: T3, GABARAP (Homo sapiens, UniProt O95166); test: GST pull-down of hEPG5 (wild type and mutants) with GST-GABARAP bait; type: binding; details: anti-FLAG western blot, compared to wild-type hEPG5, triplicates
T3 construct: made in house; host or cells: E. coli (T7 Express)
Experimental: (§4) For GST pull-down analysis, N-terminally GST-tagged LC3 and GABARAP proteins were expressed in Escherichia coli (T7 Express) cells. The cells were induced with 1 mM isopropyl β-d-1-thiogalacpyranoside [IPTG] for 4 h at 25 °C. The cell pellets were resuspended in 25 mL buffer E (50 mM Tris pH 8.0, 150 mM NaCl, and 1 mM PMSF). Cells were then sonicated for four cycles consisting of 1 min sonication followed by 2 min cooling on ice, with duty cycle set to 50% and output control at 5. Cell lysate was then centrifuged at 20,950 × g for 40 min at 4 °C. Supernatant was incubated for 1 h at 4 °C with glutathione resin (50% slurry, GenScript) pre-equilibrated with buffer E, while gently inverting. Resin was returned to the column and washed with buffer E. Proteins were eluted with 10 mM reduced glutathione (GoldBio) in buffer F (50 mM Tris pH 8.0, 150 mM NaCl). Free glutathione was removed by dialysis in buffer F and protein concentration was measured by spectrophotometry (NanoDrop, Thermo Scientific). Glycerol was added to a final concentration of 5%, then solutions were aliquoted and stored at −70 °C.
Pulldowns were performed with a 50 µL slurry of glutathione resin (50% slurry, GenScript). The resin was equilibrated with buffer N (50 mM Tris pH 8.0, 150 mM NaCl, 5% glycerol, 0.01% Tween20, and 0.5 mM DTT) and the beads were incubated with equal amounts (200–240 µg) of purified GST, GST-LC3A/B/C, and GST-GABARAP/L1/L2 bait for 10 min at 4 °C with gentle inversion. The tubes were centrifuged at 500 × g for 2 min, followed by removal of excess bait protein in the supernatant. The resin was then incubated with equal amounts (25–30 µg) of purified His-FLAG-hEPG5, truncated hEPG5 or its corresponding mutants (W550A, W567A, W550A/W567A, F794A, or Q336R). The tubes were once again centrifuged at 500 × g for 2 min, followed by removal of the supernatant. The resin was washed with 1 mL buffer N, centrifuged at 500 × g for 2 min, followed by removal of the excess buffer with five washes. After the final wash and removal of the supernatant, 50 µL 2× SDS loading dye was added to each tube. The tubes were then heated at 65 °C for 10 min, loaded onto two 6–15% gradient SDS–PAGE gels, and stained with Coomassie Blue. For western blots, samples were transferred from a 6–15% gradient SDS–PAGE gel to a nitrocellulose membrane and blocked with Odyssey Blocking Buffer (LI-COR). Mouse anti-FLAG was used as the primary antibody (1:2000; Sigma-Aldrich) and donkey anti-mouse IRDye 680LT as the secondary antibody (1:7500; LI-COR) for visualization on a ChemiDoc Imager (Bio-Rad). Experiments were performed in triplicates.
All experiments were performed in triplicates. ITC data represents means or means ± SEM. Intensity of His-FLAG-hEPG5, GST (control), and GST-LC3/GABARAP subfamily proteins in pull-down assays was quantified using Bio-Rad Image Lab Software v6.0. Statistics were performed using Prism 7 (GraphPad).

[1] = test system: GABARAP subfamily (GABARAP, GABARAPL1, and GABARAPL2); test: GST pull-down of hEPG5, average over GABARAP subfamily baits; type: binding, human
Experimental: as §4
Pulldowns were performed with a 50 µL slurry of glutathione resin (50% slurry, GenScript). […]
as §3

[2] = Differential scanning fluorimetry (thermal shift assay) of hEPG5; type: physicochemical; details: 0.4 mg/mL protein, 10× Sypro Orange, 50 mM Tris pH 8.0, 150 mM NaCl, maximum of first derivative, triplicates
Experimental: Purified wild type His-FLAG-hEPG5 and His-FLAG-hEPG5^Q336R at 0.4 mg/mL were mixed with 10× Sypro Orange dye in buffer F in a final volume of 25 µL. The fluorescence was measured using the MiniOpticon Real-Time PCR system in triplicates. Melting temperature was calculated using the maximum of the first derivative with Prism 7 (GraphPad).

T3 sequence (O95166 whole entry): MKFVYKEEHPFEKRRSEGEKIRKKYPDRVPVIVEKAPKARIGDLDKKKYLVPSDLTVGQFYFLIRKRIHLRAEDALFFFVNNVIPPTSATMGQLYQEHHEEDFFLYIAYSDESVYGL
T2 sequence (Q9BXW4 whole entry): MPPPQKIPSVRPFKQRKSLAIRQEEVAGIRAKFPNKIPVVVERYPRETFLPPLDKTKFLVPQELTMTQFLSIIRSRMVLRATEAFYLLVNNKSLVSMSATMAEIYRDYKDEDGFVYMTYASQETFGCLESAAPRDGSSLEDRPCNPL

## GSGTWTLVDEG [LIR1]
LC3B
  Kd with LC3B: bind weakly
LC3C
  Kd with LC3C: bind weakly

## W550A/W567A: hEPG5 double mutant of both tandem LIR motifs
GABARAP
  binding to GABARAP in GST pull-down, in words: completely abolished GABARAP binding

## W550A: hEPG5 mutant, first aromatic residue of LIR1 replaced by alanine
GABARAP
  binding to GABARAP in GST pull-down, in words: severely

## W567A: hEPG5 mutant, first aromatic residue of LIR2 replaced by alanine
GABARAP
  binding to GABARAP in GST pull-down, in words: mildly

## hEPG5: recombinant full-length human EPG5, His-FLAG tagged, expressed in a baculovirus-insect cell system
[1]; fluorescence-based western blotting, triplicates
  hEPG5 precipitated by GABARAP subfamily compared to LC3 subfamily: 2.5 times
[1]; hEPG5 binding ratio, average of 3 runs
  Average Ratio of GABARAP Family: LC3 Family: 2.51

## hEPG5^F794A: hEPG5 mutant with mutation to the third putative LIR motif
GABARAP
  binding to GABARAP in GST pull-down, in words: binds GABARAP as strongly as wild-type hEPG5

## hEPG5^Q336R: hEPG5 carrying the Vici syndrome mutation Gln336Arg
GABARAP
  binding to GABARAP in GST pull-down, in words: did not affect hEPG5’s ability to bind to GABARAP and other human ATG8 proteins
[2]
  melting temperature higher than wild-type hEPG5: ~1.5 °C

## hEPG5^Δ1–548: hEPG5 truncation devoid of the region between the N-terminus and the two LIR motifs
GABARAP
  binding to GABARAP in GST pull-down, in words: precipitated by GABARAP at a higher level compared to wild-type hEPG5

## hEPG5^Δ1770–2579: hEPG5 truncation mutant which excludes the entire C-terminal region
GABARAP
  binding to GABARAP in GST pull-down, in words: binds GABARAP equally well compared to wild-type hEPG5
